{
  "source": "patent US20250145729A1",
  "molecular_target": "cyno CD98hc (cynomolgus monkey)",
  "assay": "SPR (Biacore)",
  "data": [
    {"substance": "LLB2.C.1 (from UniProt P0DOX5 233-449) (Fc fusion)", "values": [
      {"measurement": "Kd", "value": 1500, "unit": "nM"}
    ]}
  ]
}
